Laboratory results from patent US20150344570A1 (published 2015).

T1: FcγRIIb extracellular domain with C-terminal His tag (human, UniProt P31994 43-217)
T1 construct: extracellular domain; also called 2b; FcgRIIb
T1 sequence (looked up): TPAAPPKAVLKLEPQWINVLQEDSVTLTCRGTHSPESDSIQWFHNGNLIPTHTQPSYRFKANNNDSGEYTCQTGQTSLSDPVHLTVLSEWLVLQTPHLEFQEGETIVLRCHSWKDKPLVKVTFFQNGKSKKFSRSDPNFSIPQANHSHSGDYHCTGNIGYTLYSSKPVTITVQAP


How the values were obtained:
[1] = molecular target: T2, FcγRIIIa extracellular domain with C-terminal His tag (human, UniProt P08637 17-208); assay: SPR, binding relative to GpH7-A5/GpH7-B3/GpL16-k0 = 100
T2 construct: extracellular domain; also called 3a; FcgRIIIa
Experimental: (§1) The heterodimerized antibodies He Abs in which one of the H chains was introduced with an alteration were assayed for their binding activities to each activating FcγR and inhibitory FcγR according to the method described in Example 4. […] The activating FcγRs in FIGS. 26, 27, 28, and 29 are FcγRIa, FcγRIIa (R), FcγRIIa (H), and FcγRIIIa, respectively.
(§2) Analysis of interaction between objective antibody and the FcγR was carried out using Biacore T100 (GE Healthcare). HBS-EP+ (GE Healthcare) was used as the running buffer, and the measurement temperature was set to 25° C. Chips produced by immobilizing the antigen peptide by the amine coupling method to a Series S Sencor Chip CM5 (GE Healthcare), or alternatively, chips produced by allowing preliminarily biotinylated antigen peptides to interact with and immobilize onto a Series S Sensor Chip SA (certified) (GE Healthcare) were used. Antibodies of interest were captured onto an antigen peptide-immobilized chip, and allowed to interact to each FcγR diluted with running buffer. To regenerate and repeatedly use the chip, the antibodies captured on the chip were washed off by reacting 10 mM glycine-HCl, pH 1.5.

[2] = molecular target: T1, FcγRIIb extracellular domain with …; assay: as above
Experimental: as §1, §2

T2 sequence (P08637 17-208): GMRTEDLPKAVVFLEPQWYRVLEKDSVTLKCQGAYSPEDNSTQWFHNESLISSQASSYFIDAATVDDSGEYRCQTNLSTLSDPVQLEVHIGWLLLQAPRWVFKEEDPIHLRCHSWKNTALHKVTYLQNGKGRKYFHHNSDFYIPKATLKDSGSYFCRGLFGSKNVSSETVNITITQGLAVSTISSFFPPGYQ

He/Con_3a [1] | He/Con_2b [2] | Binder
118 % of control | 99.8 % of control | GpH7-A5/GpH7-B3 variant L234_04F/GpL16-k0 (antibody, human IgG1, kappa, also called He Ab) heavy 1: not shown heavy 2: not shown light: DIVMTQSPLSLPVTPGEPASISCQASESLVHSNRNTYLHWYLQKPGQSPQLLIYKVSNRFSGVPDRFSGSGSGTDFTLKISRVEAEDVGVYYCSQNTHVPPTFGQGTKVEIERTVAAPSVFIFPPSDEQLKSGTASVVCLLNNFYPREAKVQWKVDNALQSGNSQESVTEQDSKDSTYSLSSTLTLSKADYEKHKVYACEVTHQGLSSPVTKSFNRGEC
105 % of control | 83.8 % of control | GpH7-A5/GpH7-B3 variant E333_02A/GpL16-k0 (antibody, human IgG1, kappa, also called He Ab) heavy 1: not shown heavy 2: not shown light: DIVMTQSPLSLPVTPGEPASISCQASESLVHSNRNTYLHWYLQKPGQSPQLLIYKVSNRFSGVPDRFSGSGSGTDFTLKISRVEAEDVGVYYCSQNTHVPPTFGQGTKVEIERTVAAPSVFIFPPSDEQLKSGTASVVCLLNNFYPREAKVQWKVDNALQSGNSQESVTEQDSKDSTYSLSSTLTLSKADYEKHKVYACEVTHQGLSSPVTKSFNRGEC
124 % of control | 70.5 % of control | GpH7-A5/GpH7-B3 variant A330_08L/GpL16-k0 (antibody, human IgG1, kappa, also called He Ab) heavy 1: not shown heavy 2: not shown light: DIVMTQSPLSLPVTPGEPASISCQASESLVHSNRNTYLHWYLQKPGQSPQLLIYKVSNRFSGVPDRFSGSGSGTDFTLKISRVEAEDVGVYYCSQNTHVPPTFGQGTKVEIERTVAAPSVFIFPPSDEQLKSGTASVVCLLNNFYPREAKVQWKVDNALQSGNSQESVTEQDSKDSTYSLSSTLTLSKADYEKHKVYACEVTHQGLSSPVTKSFNRGEC
142 % of control | 80.5 % of control | GpH7-A5/GpH7-B3 variant A330_06M/GpL16-k0 (antibody, human IgG1, kappa, also called He Ab) heavy 1: not shown heavy 2: not shown light: DIVMTQSPLSLPVTPGEPASISCQASESLVHSNRNTYLHWYLQKPGQSPQLLIYKVSNRFSGVPDRFSGSGSGTDFTLKISRVEAEDVGVYYCSQNTHVPPTFGQGTKVEIERTVAAPSVFIFPPSDEQLKSGTASVVCLLNNFYPREAKVQWKVDNALQSGNSQESVTEQDSKDSTYSLSSTLTLSKADYEKHKVYACEVTHQGLSSPVTKSFNRGEC
101 % of control | 52.4 % of control | GpH7-A5/GpH7-B3 variant A330_03V/GpL16-k0 (antibody, human IgG1, kappa, also called He Ab) heavy 1: not shown heavy 2: not shown light: DIVMTQSPLSLPVTPGEPASISCQASESLVHSNRNTYLHWYLQKPGQSPQLLIYKVSNRFSGVPDRFSGSGSGTDFTLKISRVEAEDVGVYYCSQNTHVPPTFGQGTKVEIERTVAAPSVFIFPPSDEQLKSGTASVVCLLNNFYPREAKVQWKVDNALQSGNSQESVTEQDSKDSTYSLSSTLTLSKADYEKHKVYACEVTHQGLSSPVTKSFNRGEC
103 % of control | 93.2 % of control | GpH7-A5/GpH7-B3 variant E333_03V/GpL16-k0 (antibody, human IgG1, kappa, also called He Ab) heavy 1: not shown heavy 2: not shown light: DIVMTQSPLSLPVTPGEPASISCQASESLVHSNRNTYLHWYLQKPGQSPQLLIYKVSNRFSGVPDRFSGSGSGTDFTLKISRVEAEDVGVYYCSQNTHVPPTFGQGTKVEIERTVAAPSVFIFPPSDEQLKSGTASVVCLLNNFYPREAKVQWKVDNALQSGNSQESVTEQDSKDSTYSLSSTLTLSKADYEKHKVYACEVTHQGLSSPVTKSFNRGEC
147 % of control | 92.8 % of control | GpH7-A5/GpH7-B3 variant A330_04F/GpL16-k0 (antibody, human IgG1, kappa, also called He Ab) heavy 1: not shown heavy 2: not shown light: DIVMTQSPLSLPVTPGEPASISCQASESLVHSNRNTYLHWYLQKPGQSPQLLIYKVSNRFSGVPDRFSGSGSGTDFTLKISRVEAEDVGVYYCSQNTHVPPTFGQGTKVEIERTVAAPSVFIFPPSDEQLKSGTASVVCLLNNFYPREAKVQWKVDNALQSGNSQESVTEQDSKDSTYSLSSTLTLSKADYEKHKVYACEVTHQGLSSPVTKSFNRGEC
112 % of control | 94.3 % of control | GpH7-A5/GpH7-B3 variant E333_09D/GpL16-k0 (antibody, human IgG1, kappa, also called He Ab) heavy 1: not shown heavy 2: not shown light: DIVMTQSPLSLPVTPGEPASISCQASESLVHSNRNTYLHWYLQKPGQSPQLLIYKVSNRFSGVPDRFSGSGSGTDFTLKISRVEAEDVGVYYCSQNTHVPPTFGQGTKVEIERTVAAPSVFIFPPSDEQLKSGTASVVCLLNNFYPREAKVQWKVDNALQSGNSQESVTEQDSKDSTYSLSSTLTLSKADYEKHKVYACEVTHQGLSSPVTKSFNRGEC
123 % of control | 76.5 % of control | GpH7-A5/GpH7-B3 variant D270_10E/GpL16-k0 (antibody, human IgG1, kappa, also called He Ab) heavy 1: not shown heavy 2: not shown light: DIVMTQSPLSLPVTPGEPASISCQASESLVHSNRNTYLHWYLQKPGQSPQLLIYKVSNRFSGVPDRFSGSGSGTDFTLKISRVEAEDVGVYYCSQNTHVPPTFGQGTKVEIERTVAAPSVFIFPPSDEQLKSGTASVVCLLNNFYPREAKVQWKVDNALQSGNSQESVTEQDSKDSTYSLSSTLTLSKADYEKHKVYACEVTHQGLSSPVTKSFNRGEC
101 % of control | 94.6 % of control | GpH7-A5/GpH7-B3 variant E333_04F/GpL16-k0 (antibody, human IgG1, kappa, also called He Ab) heavy 1: not shown heavy 2: not shown light: DIVMTQSPLSLPVTPGEPASISCQASESLVHSNRNTYLHWYLQKPGQSPQLLIYKVSNRFSGVPDRFSGSGSGTDFTLKISRVEAEDVGVYYCSQNTHVPPTFGQGTKVEIERTVAAPSVFIFPPSDEQLKSGTASVVCLLNNFYPREAKVQWKVDNALQSGNSQESVTEQDSKDSTYSLSSTLTLSKADYEKHKVYACEVTHQGLSSPVTKSFNRGEC
103 % of control | 67.1 % of control | GpH7-A5/GpH7-B3 variant A330_07I/GpL16-k0 (antibody, human IgG1, kappa, also called He Ab) heavy 1: not shown heavy 2: not shown light: DIVMTQSPLSLPVTPGEPASISCQASESLVHSNRNTYLHWYLQKPGQSPQLLIYKVSNRFSGVPDRFSGSGSGTDFTLKISRVEAEDVGVYYCSQNTHVPPTFGQGTKVEIERTVAAPSVFIFPPSDEQLKSGTASVVCLLNNFYPREAKVQWKVDNALQSGNSQESVTEQDSKDSTYSLSSTLTLSKADYEKHKVYACEVTHQGLSSPVTKSFNRGEC
104 % of control | 76.1 % of control | GpH7-A5/GpH7-B3 variant A330_20W/GpL16-k0 (antibody, human IgG1, kappa, also called He Ab) heavy 1: not shown heavy 2: not shown light: DIVMTQSPLSLPVTPGEPASISCQASESLVHSNRNTYLHWYLQKPGQSPQLLIYKVSNRFSGVPDRFSGSGSGTDFTLKISRVEAEDVGVYYCSQNTHVPPTFGQGTKVEIERTVAAPSVFIFPPSDEQLKSGTASVVCLLNNFYPREAKVQWKVDNALQSGNSQESVTEQDSKDSTYSLSSTLTLSKADYEKHKVYACEVTHQGLSSPVTKSFNRGEC
104 % of control | 87.6 % of control | GpH7-A5/GpH7-B3 variant A330_16H/GpL16-k0 (antibody, human IgG1, kappa, also called He Ab) heavy 1: not shown heavy 2: not shown light: DIVMTQSPLSLPVTPGEPASISCQASESLVHSNRNTYLHWYLQKPGQSPQLLIYKVSNRFSGVPDRFSGSGSGTDFTLKISRVEAEDVGVYYCSQNTHVPPTFGQGTKVEIERTVAAPSVFIFPPSDEQLKSGTASVVCLLNNFYPREAKVQWKVDNALQSGNSQESVTEQDSKDSTYSLSSTLTLSKADYEKHKVYACEVTHQGLSSPVTKSFNRGEC
103 % of control | 81.8 % of control | GpH7-A5/GpH7-B3 variant E333_13S/GpL16-k0 (antibody, human IgG1, kappa, also called He Ab) heavy 1: not shown heavy 2: not shown light: DIVMTQSPLSLPVTPGEPASISCQASESLVHSNRNTYLHWYLQKPGQSPQLLIYKVSNRFSGVPDRFSGSGSGTDFTLKISRVEAEDVGVYYCSQNTHVPPTFGQGTKVEIERTVAAPSVFIFPPSDEQLKSGTASVVCLLNNFYPREAKVQWKVDNALQSGNSQESVTEQDSKDSTYSLSSTLTLSKADYEKHKVYACEVTHQGLSSPVTKSFNRGEC
125 % of control | 95 % of control | GpH7-A5/GpH7-B3 variant A330_15Y/GpL16-k0 (antibody, human IgG1, kappa, also called He Ab) heavy 1: not shown heavy 2: not shown light: DIVMTQSPLSLPVTPGEPASISCQASESLVHSNRNTYLHWYLQKPGQSPQLLIYKVSNRFSGVPDRFSGSGSGTDFTLKISRVEAEDVGVYYCSQNTHVPPTFGQGTKVEIERTVAAPSVFIFPPSDEQLKSGTASVVCLLNNFYPREAKVQWKVDNALQSGNSQESVTEQDSKDSTYSLSSTLTLSKADYEKHKVYACEVTHQGLSSPVTKSFNRGEC
